Laboratory results taken from the supplement of paper PMC10065799, “High-throughput profiling of sequence recognition by tyrosine kinases and SH2 domains using bacterial peptide display” (eLife, 2023).

What was measured:
AncSZ = experiment: phosphorylation enrichment, bacterial display (enrichment ratio); higher = better substrate or ligand; peptides without Tyr show the background
EPHB1 = EPHB1 (UniProt P54762); experiment: as above
EPHB2 = EPHB2 (UniProt P29323); experiment: as above
FGFR1 = FGFR1 (UniProt P11362); experiment: as above
Sequence of FGFR1 (P11362 whole entry, looked up): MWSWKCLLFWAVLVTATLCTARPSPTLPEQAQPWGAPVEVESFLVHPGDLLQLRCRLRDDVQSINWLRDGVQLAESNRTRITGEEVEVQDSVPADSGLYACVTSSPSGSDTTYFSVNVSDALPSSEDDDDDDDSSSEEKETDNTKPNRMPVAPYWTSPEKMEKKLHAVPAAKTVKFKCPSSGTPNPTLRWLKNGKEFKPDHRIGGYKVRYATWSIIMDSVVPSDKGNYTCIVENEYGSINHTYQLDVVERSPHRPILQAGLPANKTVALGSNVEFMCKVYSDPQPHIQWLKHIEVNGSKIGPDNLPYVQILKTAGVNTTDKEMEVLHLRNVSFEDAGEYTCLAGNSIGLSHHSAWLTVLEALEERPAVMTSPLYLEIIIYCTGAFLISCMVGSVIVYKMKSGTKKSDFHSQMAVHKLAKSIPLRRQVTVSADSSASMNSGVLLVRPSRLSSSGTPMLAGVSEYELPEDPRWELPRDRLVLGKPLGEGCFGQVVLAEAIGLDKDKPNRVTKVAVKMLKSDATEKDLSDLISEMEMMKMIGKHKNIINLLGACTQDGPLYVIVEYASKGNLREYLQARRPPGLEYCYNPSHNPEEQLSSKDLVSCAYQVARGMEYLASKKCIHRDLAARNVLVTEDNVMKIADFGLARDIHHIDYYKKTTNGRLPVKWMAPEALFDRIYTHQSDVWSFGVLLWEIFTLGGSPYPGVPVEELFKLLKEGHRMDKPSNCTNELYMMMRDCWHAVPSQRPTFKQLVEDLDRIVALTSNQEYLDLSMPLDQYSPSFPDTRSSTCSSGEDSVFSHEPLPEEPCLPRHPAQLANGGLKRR

FGFR3 = FGFR3 (UniProt P22607); experiment: as above
Fer (mouse) = experiment: as above
Fes = Fes (UniProt P07332); experiment: as above
Sequence of Fes (P07332 whole entry, looked up): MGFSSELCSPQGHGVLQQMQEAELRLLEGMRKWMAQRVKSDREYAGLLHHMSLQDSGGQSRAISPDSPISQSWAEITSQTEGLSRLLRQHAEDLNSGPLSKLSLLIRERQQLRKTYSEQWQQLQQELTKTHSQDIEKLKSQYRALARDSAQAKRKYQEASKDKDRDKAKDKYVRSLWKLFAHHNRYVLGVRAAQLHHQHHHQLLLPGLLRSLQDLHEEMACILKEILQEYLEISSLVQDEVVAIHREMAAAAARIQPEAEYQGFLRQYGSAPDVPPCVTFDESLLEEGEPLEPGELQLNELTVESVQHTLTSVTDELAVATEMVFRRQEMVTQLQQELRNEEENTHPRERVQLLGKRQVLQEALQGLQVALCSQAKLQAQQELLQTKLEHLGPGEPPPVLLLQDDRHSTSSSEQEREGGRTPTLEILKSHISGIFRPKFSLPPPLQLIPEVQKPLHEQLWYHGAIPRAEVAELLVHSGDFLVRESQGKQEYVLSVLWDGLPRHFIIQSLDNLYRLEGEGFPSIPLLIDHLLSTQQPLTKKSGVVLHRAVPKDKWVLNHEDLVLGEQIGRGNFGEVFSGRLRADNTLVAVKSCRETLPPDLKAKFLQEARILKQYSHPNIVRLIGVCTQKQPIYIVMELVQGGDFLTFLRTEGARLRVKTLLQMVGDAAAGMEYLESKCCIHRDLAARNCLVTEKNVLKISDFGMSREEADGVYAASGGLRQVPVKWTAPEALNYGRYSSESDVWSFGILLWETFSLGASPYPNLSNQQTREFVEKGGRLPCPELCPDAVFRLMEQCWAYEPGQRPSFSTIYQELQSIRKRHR

Fyn = Fyn (UniProt P06241); experiment: as above
Sequence of Fyn (P06241 whole entry, looked up): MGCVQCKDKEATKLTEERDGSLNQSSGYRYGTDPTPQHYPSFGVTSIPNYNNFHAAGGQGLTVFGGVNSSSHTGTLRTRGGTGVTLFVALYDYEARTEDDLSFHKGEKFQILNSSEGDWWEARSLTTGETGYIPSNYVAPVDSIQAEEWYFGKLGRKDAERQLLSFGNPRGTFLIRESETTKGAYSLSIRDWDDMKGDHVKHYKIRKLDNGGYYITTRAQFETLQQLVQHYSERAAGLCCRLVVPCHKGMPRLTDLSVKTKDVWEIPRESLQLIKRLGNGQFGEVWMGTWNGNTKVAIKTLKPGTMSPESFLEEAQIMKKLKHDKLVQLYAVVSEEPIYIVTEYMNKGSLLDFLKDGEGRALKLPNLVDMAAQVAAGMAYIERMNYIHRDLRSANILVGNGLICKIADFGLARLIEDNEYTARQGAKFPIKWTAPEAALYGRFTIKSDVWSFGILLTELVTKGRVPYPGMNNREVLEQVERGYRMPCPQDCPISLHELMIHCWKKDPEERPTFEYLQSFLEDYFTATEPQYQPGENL

Hck = Hck (UniProt P08631); experiment: as above
Sequence of Hck (P08631 whole entry, looked up): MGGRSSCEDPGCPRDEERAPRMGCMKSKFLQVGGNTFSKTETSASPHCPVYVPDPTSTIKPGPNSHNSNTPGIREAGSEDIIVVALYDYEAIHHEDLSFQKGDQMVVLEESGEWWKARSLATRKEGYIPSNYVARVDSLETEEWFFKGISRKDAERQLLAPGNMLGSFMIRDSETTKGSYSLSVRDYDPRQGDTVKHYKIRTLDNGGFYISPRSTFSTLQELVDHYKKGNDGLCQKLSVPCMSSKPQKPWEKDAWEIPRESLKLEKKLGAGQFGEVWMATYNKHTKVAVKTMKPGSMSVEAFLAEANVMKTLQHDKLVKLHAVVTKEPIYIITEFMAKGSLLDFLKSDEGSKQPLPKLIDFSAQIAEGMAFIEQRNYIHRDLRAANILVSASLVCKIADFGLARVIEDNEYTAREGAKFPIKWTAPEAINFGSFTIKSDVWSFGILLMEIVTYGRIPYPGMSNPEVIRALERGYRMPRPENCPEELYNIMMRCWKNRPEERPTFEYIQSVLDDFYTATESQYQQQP

Jak2 = Jak2 (UniProt O60674); experiment: as above
MERTK = MERTK (UniProt Q12866); experiment: as above
Sequence of MERTK (Q12866 whole entry, looked up): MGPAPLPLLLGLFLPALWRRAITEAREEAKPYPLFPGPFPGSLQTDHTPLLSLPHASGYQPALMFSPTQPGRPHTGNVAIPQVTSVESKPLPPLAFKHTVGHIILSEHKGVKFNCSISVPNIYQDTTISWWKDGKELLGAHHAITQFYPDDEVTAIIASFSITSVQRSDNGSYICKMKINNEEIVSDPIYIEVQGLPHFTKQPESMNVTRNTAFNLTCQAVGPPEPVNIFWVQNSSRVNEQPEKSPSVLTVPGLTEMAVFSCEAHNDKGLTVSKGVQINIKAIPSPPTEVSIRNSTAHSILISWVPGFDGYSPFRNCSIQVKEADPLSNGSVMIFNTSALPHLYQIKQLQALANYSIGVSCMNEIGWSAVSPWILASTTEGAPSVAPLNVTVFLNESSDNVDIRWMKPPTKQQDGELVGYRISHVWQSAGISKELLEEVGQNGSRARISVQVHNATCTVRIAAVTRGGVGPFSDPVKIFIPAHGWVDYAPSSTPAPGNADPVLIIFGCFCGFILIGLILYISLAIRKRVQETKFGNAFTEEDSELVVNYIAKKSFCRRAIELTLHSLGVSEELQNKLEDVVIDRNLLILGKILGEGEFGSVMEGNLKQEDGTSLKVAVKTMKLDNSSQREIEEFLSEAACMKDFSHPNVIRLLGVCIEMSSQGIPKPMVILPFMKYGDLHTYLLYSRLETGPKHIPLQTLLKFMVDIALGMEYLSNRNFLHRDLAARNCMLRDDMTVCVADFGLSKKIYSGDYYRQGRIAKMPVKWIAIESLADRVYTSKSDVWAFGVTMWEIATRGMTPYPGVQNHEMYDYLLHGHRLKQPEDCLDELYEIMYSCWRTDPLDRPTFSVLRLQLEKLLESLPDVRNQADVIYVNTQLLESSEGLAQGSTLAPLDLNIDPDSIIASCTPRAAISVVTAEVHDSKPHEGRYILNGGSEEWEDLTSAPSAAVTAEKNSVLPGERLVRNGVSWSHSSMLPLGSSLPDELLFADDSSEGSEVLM

c-Abl (mouse) = experiment: as above
c-Src = experiment: as above
Grb2 SH2 = Grb2 SH2 (UniProt P62993); experiment: SH2 binding enrichment of the phosphorylated peptide, bacterial display (enrichment ratio); higher = better substrate or ligand; peptides without Tyr show the background
Sequence of Grb2 SH2 (P62993 whole entry, looked up): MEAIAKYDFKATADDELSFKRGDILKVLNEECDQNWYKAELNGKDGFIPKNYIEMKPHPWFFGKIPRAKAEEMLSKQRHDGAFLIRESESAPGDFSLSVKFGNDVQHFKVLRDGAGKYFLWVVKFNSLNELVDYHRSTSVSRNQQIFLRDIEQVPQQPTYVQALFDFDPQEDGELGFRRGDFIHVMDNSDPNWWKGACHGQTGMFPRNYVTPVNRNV

SHP2-C SH2 = experiment: as above
c-Src SH2 = experiment: as above
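For SH2 binding enrichment of the phosphorylated peptide, bacterial display in this document: peptide library displayed on the E. coli surface as eCPX fusions, selected cells deep-sequenced, score is each peptide's frequency after selection divided by its frequency in the input.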
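For phosphorylation enrichment, bacterial display in this document: 11-residue human phosphosite peptides and single-mutation variants displayed on the E. coli surface, counted by deep sequencing, each peptide's frequency after selection divided by its frequency in the unselected input library; frequency after pTyr selection over input frequency; kinase dosed for 20-30% of maximal phosphorylation in three min.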

Sequence of EPHB2 (P29323 whole entry, looked up): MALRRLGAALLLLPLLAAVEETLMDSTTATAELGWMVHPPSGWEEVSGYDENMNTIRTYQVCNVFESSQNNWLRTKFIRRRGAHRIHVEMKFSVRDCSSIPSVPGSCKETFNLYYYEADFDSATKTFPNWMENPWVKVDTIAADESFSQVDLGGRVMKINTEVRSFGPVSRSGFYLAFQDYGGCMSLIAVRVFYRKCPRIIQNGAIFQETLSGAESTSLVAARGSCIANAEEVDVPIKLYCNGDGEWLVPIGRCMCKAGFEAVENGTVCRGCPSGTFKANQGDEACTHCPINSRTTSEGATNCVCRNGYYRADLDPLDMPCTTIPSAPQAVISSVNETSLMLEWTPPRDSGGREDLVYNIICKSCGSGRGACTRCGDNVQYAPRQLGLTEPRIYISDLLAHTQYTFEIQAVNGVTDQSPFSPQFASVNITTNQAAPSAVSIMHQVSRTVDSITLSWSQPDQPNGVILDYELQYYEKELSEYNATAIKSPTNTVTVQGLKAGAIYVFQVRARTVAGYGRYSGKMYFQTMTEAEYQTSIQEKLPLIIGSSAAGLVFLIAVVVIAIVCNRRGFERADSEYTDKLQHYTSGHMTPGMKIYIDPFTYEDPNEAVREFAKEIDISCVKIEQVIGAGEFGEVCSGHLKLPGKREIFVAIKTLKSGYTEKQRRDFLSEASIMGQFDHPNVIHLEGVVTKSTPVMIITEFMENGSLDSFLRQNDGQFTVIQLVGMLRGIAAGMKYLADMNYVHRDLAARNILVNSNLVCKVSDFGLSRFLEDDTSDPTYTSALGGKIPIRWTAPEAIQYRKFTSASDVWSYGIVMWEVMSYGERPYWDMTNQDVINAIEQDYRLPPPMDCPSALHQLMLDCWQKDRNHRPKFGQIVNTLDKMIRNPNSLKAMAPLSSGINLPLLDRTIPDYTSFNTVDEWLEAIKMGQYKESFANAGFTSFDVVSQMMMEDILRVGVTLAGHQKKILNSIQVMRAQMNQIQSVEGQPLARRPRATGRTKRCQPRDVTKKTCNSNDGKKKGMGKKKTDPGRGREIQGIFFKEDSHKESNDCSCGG

Sequence | phosphorylation enrichment (AncSZ) | phosphorylation enrichment (EPHB1) | phosphorylation enrichment (EPHB2) | phosphorylation enrichment (FGFR1) | phosphorylation enrichment (FGFR3) | phosphorylation enrichment (Fer (mouse)) | phosphorylation enrichment (Fes) | phosphorylation enrichment (Fyn) | phosphorylation enrichment (Hck) | phosphorylation enrichment (Jak2) | phosphorylation enrichment (MERTK) | phosphorylation enrichment (c-Abl (mouse)) | phosphorylation enrichment (c-Src) | SH2 binding enrichment (Grb2 SH2) | SH2 binding enrichment (SHP2-C SH2) | SH2 binding enrichment (c-Src SH2)
EMFNPYFGLFE [NEDD4L_Y679_YF] | 1.52 | 2.32 | 1.88 | 1.94 | 1.68 | 2.66 | 1.21 | 7.38 | 6.01 | 8.21 | 3.52 | 1.14 | 7.31 | 1.53 | 1.1 | 0.743
ENELTYYCYKK [CD59_Y86_C89Y] | 1.92 | 0.794 | 0.752 | 1.68 | 1.53 | 0.685 | 1.69 | 4.74 | 4.79 | 2.25 | 1.36 | 6.18 | 5.18 | 0.793 | 0.65 | 0.45
EPSVDYCVVKI [CAD_Y735] | 1.57 | 2.83 | 1.95 | 2.25 | 1.71 | 1.26 | 1.11 | 0.577 | 0.664 | 1.1 | 0.529 | 0.774 | 0.618 | 1.11 | 1.22 | 0.684
EPVSDYINASI [PTPN11_Y304_N308S] | 1.05 | 0.608 | 0.566 | 0.569 | 0.651 | 0.5 | 1.03 | 0.385 | 0.49 | 0.953 | 0.494 | 0.909 | 0.526 | 1.06 | 0.593 | 0.512
EQKKYYNATKK [SCN5A_Y1495_M1498T] | 0.478 | 0.399 | 0.383 | 0.343 | 0.387 | 0.407 | 0.54 | 0.375 | 0.384 | 0.503 | 0.371 | 0.485 | 0.411 | 1.16 | 1.04 | 0.731
EQMLEYMGQLQ [CFAP45_Y289_E291G] | 0.913 | 0.436 | 0.493 | 0.447 | 0.595 | 0.427 | 1.01 | 0.542 | 0.507 | 0.873 | 0.448 | 0.762 | 0.505 | 0.794 | 0.553 | 0.42
ERSMSYCDESR [SMG1_Y143_S144C] | 0.788 | 0.435 | 0.496 | 0.475 | 0.551 | 0.474 | 0.77 | 0.422 | 0.402 | 0.728 | 0.43 | 0.704 | 0.491 | 0.951 | 1.28 | 0.644
ERWLKYFPNEQ [HS3ST5_Y244_I247N] | 1.09 | 0.664 | 0.584 | 0.438 | 0.632 | 0.459 | 1.12 | 0.62 | 0.482 | 0.927 | 0.38 | 0.518 | 0.419 | 0.95 | 1.24 | 0.707
ESMQSYDLDYP [UNC13B_Y243_D238E] | 1.16 | 0.651 | 0.534 | 0.698 | 0.686 | 0.495 | 1.26 | 0.536 | 0.615 | 0.991 | 0.466 | 0.933 | 0.544 | 0.681 | 0.538 | 0.851
ESPGLYGFLNV [BCR_Y910] | 1.09 | 0.586 | 0.574 | 0.527 | 0.646 | 1.23 | 1.1 | 1.48 | 2.24 | 0.922 | 1.05 | 0.717 | 1.23 | 0.822 | 0.598 | 0.479
ESVNTYLQTSP [NAT1_Y208_M205V] | 0.874 | 0.538 | 0.838 | 0.386 | 0.577 | 0.49 | 0.887 | 0.441 | 0.556 | 0.799 | 0.588 | 0.655 | 0.589 | 0.762 | 0.527 | 0.395
EVDETYVPKEF [ALB_Y521] | 1.22 | 0.613 | 0.64 | 0.589 | 0.791 | 0.605 | 1.58 | 0.517 | 0.668 | 1.19 | 0.491 | 0.889 | 0.595 | 0.881 | 0.651 | 0.498
EVEFQYPFRLH [SYP_Y73_E72Q] | 1.03 | 0.64 | 0.498 | 0.475 | 0.709 | 0.524 | 1.23 | 0.445 | 0.473 | 1.1 | 0.443 | 0.885 | 0.506 | 0.913 | 0.462 | 0.489
EVEPTYVVLFD [ERCC4_Y577_R576T_YF] | 1.51 | 11.1 | 14.1 | 5.46 | 3.65 | 1.08 | 1.21 | 6.46 | 3.99 | 1.26 | 3.5 | 1.22 | 5.25 | 0.749 | 0.521 | 0.51
EVESPYEVRDF [GIGYF2_Y1168_H1171R_YF] | 1.57 | 1.01 | 0.951 | 0.655 | 0.942 | 9.13 | 1.71 | 7.49 | 2.04 | 1.63 | 0.809 | 1.09 | 6.73 | 0.888 | 0.616 | 0.45
EVESPYEVRDY [GIGYF2_Y1168_H1171R] | 1.23 | 0.785 | 0.752 | 0.542 | 0.751 | 5.62 | 1.29 | 5.17 | 1.48 | 1.16 | 0.554 | 0.765 | 4.71 | 0.674 | 0.885 | 0.626
EVGHVYLFLQP [ITGA2B_Y360_R358H] | 1.33 | 0.735 | 0.679 | 0.512 | 0.893 | 0.618 | 1.42 | 0.472 | 0.5 | 1.42 | 0.393 | 0.885 | 0.434 | 0.755 | 0.669 | 0.425

Sequence | phosphorylation enrichment (AncSZ) | phosphorylation enrichment (EPHB1) | phosphorylation enrichment (EPHB2) | phosphorylation enrichment (FGFR1) | phosphorylation enrichment (FGFR3) | phosphorylation enrichment (Fer (mouse)) | phosphorylation enrichment (Fes) | phosphorylation enrichment (Fyn) | phosphorylation enrichment (Hck) | phosphorylation enrichment (Jak2) | phosphorylation enrichment (MERTK) | phosphorylation enrichment (c-Abl (mouse)) | phosphorylation enrichment (c-Src) | SH2 binding enrichment (Grb2 SH2) | SH2 binding enrichment (SHP2-C SH2) | SH2 binding enrichment (c-Src SH2)
EVKAQNEDIAQ [KRT1_Y358_Y358N] | 0.86 | 0.422 | 0.549 | 0.54 | 0.584 | 0.411 | 0.867 | 0.413 | 0.488 | 0.767 | 0.511 | 0.51 | 0.427 | 0.977 | 0.669 | 0.587
EVRTQYEEIAQ [KRT76_Y361_A359T] | 1.08 | 0.679 | 0.504 | 0.49 | 0.726 | 0.588 | 1.04 | 0.455 | 0.576 | 0.919 | 0.395 | 0.899 | 0.376 | 0.882 | 0.967 | 20.6
EWLRRYLKNGK [HLA-C_Y195_E197K] | 0.68 | 0.373 | 0.578 | 0.507 | 0.516 | 0.471 | 0.636 | 0.439 | 0.522 | 0.679 | 0.581 | 0.546 | 0.504 | 0.656 | 0.409 | 0.436
EYFENYIEELK [PARP4_Y218] | 1.44 | 0.73 | 0.647 | 2.31 | 1.69 | 0.518 | 1.4 | 0.539 | 0.607 | 1.5 | 0.422 | 0.851 | 0.63 | 0.657 | 0.785 | 0.38
FDSPFYRDSLP [TSC1_Y508] | 0.703 | 0.314 | 0.479 | 0.446 | 0.484 | 0.497 | 0.68 | 0.454 | 0.47 | 0.594 | 0.409 | 0.47 | 0.451 | 0.796 | 0.652 | 0.518
FECKWYIPLTD [BCR_Y756_D752E_YF] | 1.23 | 0.754 | 0.723 | 0.497 | 1 | 0.592 | 1.49 | 0.434 | 0.538 | 1.32 | 0.433 | 0.796 | 0.451 | 0.685 | 0.817 | 0.561
FENGEYIIRQG [PRKG1_Y247_YF] | 1.01 | 0.543 | 0.464 | 0.499 | 0.69 | 0.557 | 1.07 | 0.572 | 0.565 | 0.92 | 0.427 | 0.653 | 0.591 | 0.908 | 0.462 | 0.382
FEPDAYDDLDQ [ELP5_Y302_YF] | 1.29 | 0.624 | 0.684 | 0.573 | 0.704 | 0.6 | 1.3 | 0.574 | 0.571 | 1.27 | 0.57 | 0.731 | 0.41 | 1.03 | 0.807 | 0.623
FEPDAYFDLDQ [ELP5_Y302_D303Y_YF] | 1.52 | 0.678 | 0.656 | 5.04 | 4.43 | 0.648 | 1.34 | 0.598 | 0.622 | 1.82 | 0.477 | 0.91 | 0.584 | 0.814 | 0.499 | 0.501
FESPRYLQVRI [FANCA_Y488_H492R] | 0.946 | 0.537 | 0.477 | 0.62 | 0.572 | 0.589 | 0.985 | 0.513 | 0.579 | 0.756 | 0.437 | 0.68 | 0.437 | 0.763 | 0.964 | 0.742
FFHCTYKQRMI [CLEC12A_Y242_K244Q_YF] | 1.04 | 0.687 | 0.608 | 0.643 | 0.752 | 0.513 | 1.28 | 0.493 | 0.498 | 1.02 | 0.517 | 0.85 | 0.435 | 1.27 | 1.07 | 0.902
FFRKFCNKSED [RYR1_Y4864_Y4864C] | 0.981 | 0.515 | 0.381 | 0.49 | 0.6 | 0.417 | 1.04 | 0.589 | 0.603 | 0.779 | 0.518 | 0.677 | 0.442 | 0.992 | 0.75 | 0.513
FGCGMYSHLQG [LGR4_Y848_D844G_YF] | 1.1 | 0.879 | 0.744 | 0.795 | 0.916 | 0.745 | 1.09 | 0.713 | 1.71 | 1.06 | 3.76 | 1.04 | 2.53 | 0.875 | 0.731 | 1.1
FGGLRCGFGVL [KRTAP20-2_Y13_Y13C_YF] | 0.91 | 0.49 | 0.537 | 0.45 | 0.686 | 0.46 | 1.14 | 0.349 | 0.403 | 0.901 | 0.34 | 0.673 | 0.37 | 0.69 | 0.609 | 0.469
FGRTFYNQAIM [MCCC2_Y196] | 1.08 | 0.476 | 0.529 | 0.377 | 0.535 | 0.411 | 1.04 | 0.407 | 0.462 | 0.96 | 0.431 | 0.635 | 0.463 | 0.672 | 0.592 | 0.625
FGYPGYQCKHY [TIMP3_Y177_S179C] | 0.718 | 0.295 | 0.519 | 0.46 | 0.59 | 0.374 | 0.806 | 0.477 | 0.44 | 0.588 | 0.704 | 0.473 | 0.428 | 0.916 | 0.876 | 0.805
